Assay results: patent US20240317834A1, “COMPOSITIONS AND METHODS FOR NEUROLOGICAL DISEASES” (CODA BIOTHERAPEUTICS, INC., priority 2020, published 2024)
Where a chain is given by its changes, count along the chain named. In names and notes the source's numbering stands.

Tested on: Lenti-X 293T cells
Assay: YFP fluorescence quenching anion reporter plate reader assay of engineered receptors stimulated with acetylcholine or a non-native ligand
Type: cell-based
Settings: for percent quench of YFP fluorescence, 10 uM ach: acetylcholine 10 uM; for percent quench of YFP fluorescence, 100 uM ach: acetylcholine 100 uM; for percent quench of YFP fluorescence, 1 mM ach: acetylcholine 1 mM; for percent quench of YFP fluorescence, 3 mM ach: acetylcholine 3 mM
Method in brief: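 Lenti-X 293T cells carrying a YFP anion reporter were transiently transfected with channel DNA and assayed the next day in HEPES-buffered ECS at pH 7.2. Ligand (acetylcholine or non-native ligand) was added in NaI-substituted ECS. Percent quench was the mean of the last 10 s relative to the 15 s pre-addition baseline.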

B1: CODA217: engineered chimeric LGIC receptor, W77F in SEQ ID NO: 33 (protein)
chain: MRCSPGGVWLALAASLLHVSLQGEFQRKLYKELVKNYNPLERPVANDSQPLTVYFSLSLLQIMDVDEKNQVLTTNIFLQMSWTDHYLQWNVSEYPGVKTVRFPDGQIWKPDILLYNSADERFDATFHTNVLVNSSGHCQYLPPGIFKSSCPMDLKNFPMDVQTCKLKFGSWSYGGWSLDLQMQEADISGYIPNGEWDLVGIPGKRSERFYECCKEPYPDVTFTVTMRRRMGYYLIQMYIPSLLIVILSWISFWINMDAAPARVGLGITTVLTMTTQSSGSRASLPKVSYVKAIDIWMAVCLLFVFSALLEYAAVNFVSRQHKELLRFRRKRRHHKSPMLNLFQEDEAGEGRFNFSAYGMGPACLQAKDGISVKGANNSNTTNPPPAPSKSPEEMRKLFIQRAKKIDKISRIGFPMAFLIFNMFYWIIYKIVRREDVHNQ
modifications: synthetic sequence of chimeric LGIC
In the case of B1, the “YFP fluorescence quenching using CNL001” value (1 nM CNL001, first column) is reported as −22.273%, the “YFP fluorescence quenching using CNL001” value (1 nM CNL001, second column) is reported as −19.415% and the “YFP fluorescence quenching using TC-5619/Bradanicline” value (3 nM brd) is reported as −12.1%. For the same molecule, the “YFP fluorescence quenching using Varenicline” value (3 nM var, first column) was 5.662, the “YFP fluorescence quenching using Varenicline” value (3 nM var, second column) was 7.57 and the “YFP fluorescence quenching using CNL001” value (10 nM CNL001, first column) was −9.563%. The “YFP fluorescence quenching using CNL001” value (10 nM CNL001, second column) was 6.398%, the “YFP fluorescence quenching using TC-5619/Bradanicline” value (30 nM brd) was −14.72% and the “YFP fluorescence quenching using Facinicline” value (30 nM fac) was −10.14. The “YFP fluorescence quenching using Varenicline” value (30 nM var, first column) was 13.968, the “YFP fluorescence quenching using Varenicline” value (30 nM var, second column) was 19.079 and the “YFP fluorescence quenching using CNL001” value (50 nM CNL001, first column) was 61.938%. The “YFP fluorescence quenching using CNL001” value (50 nM CNL001, second column) was 66.837%, the “YFP fluorescence quenching using ABT-126” value (50 nM abt) was 37.81% and the “YFP fluorescence quenching using CNL001” value (100 nM CNL001, first column) was 79.791%. The “YFP fluorescence quenching using CNL001” value (100 nM CNL001, second column) was 80.908%, the “YFP fluorescence quenching using CNL002” value (100 nM CNL002) was 67.81% and the “YFP fluorescence quenching using ABT-126” value (100 nM abt) was 57.31%. For the same molecule, the “YFP fluorescence quenching using AZD-0328” value (100 nM azd0328) was −7.57%, the “YFP fluorescence quenching using ABT-126” value (300 nM abt) was 12.61% and the “YFP fluorescence quenching using AZD-0328” value (300 nM azd0328) was 7.08%. The “YFP fluorescence quenching using TC-5619/Bradanicline” value (300 nM brd) was −6.3%, the “YFP fluorescence quenching using Facinicline” value (300 nM fac) was 68.29 and the “YFP fluorescence quenching using Varenicline” value (300 nM var, first column) was 16.183. For the same molecule, the “YFP fluorescence quenching using Varenicline” value (300 nM var, second column) was 18.025, the “YFP fluorescence quenching using Varenicline” value (500 nM var, first column) was 23.366 and the “YFP fluorescence quenching using Varenicline” value (500 nM var, second column) was 19.206. The “YFP fluorescence quenching using CNL001” value (1 uM CNL001, first column) was 83.444%, the “YFP fluorescence quenching using CNL001” value (1 uM CNL001, second column) was 83.905% and the “YFP fluorescence quenching using CNL002” value (1 uM CNL002) was 69.42%. For the same molecule, the “YFP fluorescence quenching using ABT-126” value (1 uM abt) was 66.05%, the “YFP fluorescence quenching using TC-6987” value (1 uM tc6987) was −10.35 and the “YFP fluorescence quenching using Varenicline” value (1 uM var, first column) was 34.69. For the same molecule, the “YFP fluorescence quenching using Varenicline” value (1 uM var, second column) was 30.504, the “YFP fluorescence quenching using TC-6987” value (10 uM tc6987) was −13.93 and the “YFP fluorescence quenching using CNL002” value (30 uM CNL002) was 73.64%. The “YFP fluorescence quenching using AZD-0328” value (30 uM azd0328) was 81.59%, the “YFP fluorescence quenching using Facinicline” value (30 uM fac) was 87.35 and the “YFP fluorescence quenching using TC-6987” value (500 uM tc6987) was −7.54. For the same molecule, the “percent quench of YFP fluorescence, 10 uM ach” value was −5.86%, the “percent quench of YFP fluorescence, 100 uM ach” value was 70.06% and the “percent quench of YFP fluorescence, 1 mM ach” value was 68.71%. The “percent quench of YFP fluorescence, 3 mM ach” value was 73.45%.

B2: CODA109: engineered chimeric LGIC receptor, S170T in SEQ ID NO: 33 (protein)
chain: B1 chain with F77W, S170T
modifications: synthetic sequence of chimeric LGIC
For B2, the “YFP fluorescence quenching using CNL001” value (1 nM CNL001, first column) was 19.755%, the “YFP fluorescence quenching using CNL001” value (1 nM CNL001, second column) was 65.484% and the “YFP fluorescence quenching using TC-5619/Bradanicline” value (3 nM brd) was 70.58%. For the same molecule, the “YFP fluorescence quenching using Varenicline” value (3 nM var, first column) was −20.96, the “YFP fluorescence quenching using Varenicline” value (3 nM var, second column) was −19.953 and the “YFP fluorescence quenching using CNL001” value (10 nM CNL001, first column) was 79.024%. For the same molecule, the “YFP fluorescence quenching using CNL001” value (10 nM CNL001, second column) was 81.563%, the “YFP fluorescence quenching using TC-5619/Bradanicline” value (30 nM brd) was 80.71% and the “YFP fluorescence quenching using Facinicline” value (30 nM fac) was 76.45. For the same molecule, the “YFP fluorescence quenching using Varenicline” value (30 nM var, first column) was −16.094, the “YFP fluorescence quenching using Varenicline” value (30 nM var, second column) was −21.502 and the “YFP fluorescence quenching using CNL001” value (50 nM CNL001, first column) was 81.926%. For the same molecule, the “YFP fluorescence quenching using CNL001” value (50 nM CNL001, second column) was 83.092%, the “YFP fluorescence quenching using ABT-126” value (50 nM abt) was 55.83% and the “YFP fluorescence quenching using CNL001” value (100 nM CNL001, first column) was 83%. The “YFP fluorescence quenching using CNL001” value (100 nM CNL001, second column) was 83.811%, the “YFP fluorescence quenching using CNL002” value (100 nM CNL002) was 73.48% and the “YFP fluorescence quenching using ABT-126” value (100 nM abt) was 68.89%. For the same molecule, the “YFP fluorescence quenching using AZD-0328” value (100 nM azd0328) was 84.01%, the “YFP fluorescence quenching using Facinicline” value (100 nM fac) was 82.45 and the “YFP fluorescence quenching using ABT-126” value (300 nM abt) was 72.52%. The “YFP fluorescence quenching using AZD-0328” value (300 nM azd0328) was 87.08%, the “YFP fluorescence quenching using TC-5619/Bradanicline” value (300 nM brd) was 80.66% and the “YFP fluorescence quenching using Facinicline” value (300 nM fac) was 71.09. The “YFP fluorescence quenching using Varenicline” value (300 nM var, first column) was 64.373, the “YFP fluorescence quenching using Varenicline” value (300 nM var, second column) was 71.198 and the “YFP fluorescence quenching using Varenicline” value (500 nM var, first column) was 71.892. The “YFP fluorescence quenching using Varenicline” value (500 nM var, second column) was 73.53, the “YFP fluorescence quenching using CNL001” value (1 uM CNL001, first column) was 81.834% and the “YFP fluorescence quenching using CNL001” value (1 uM CNL001, second column) was 83.858%. For the same molecule, the “YFP fluorescence quenching using CNL002” value (1 uM CNL002) was 70.03%, the “YFP fluorescence quenching using ABT-126” value (1 uM abt) was 70.96% and the “YFP fluorescence quenching using TC-6987” value (1 uM tc6987) was 71.45. The “YFP fluorescence quenching using Varenicline” value (1 uM var, first column) was 75.461, the “YFP fluorescence quenching using Varenicline” value (1 uM var, second column) was 78.578 and the “YFP fluorescence quenching using TC-6987” value (10 uM tc6987) was 71.04. The “YFP fluorescence quenching using AZD-0328” value (30 uM azd0328) was 87.27%, the “YFP fluorescence quenching using Facinicline” value (30 uM fac) was 69.41 and the “YFP fluorescence quenching using TC-6987” value (500 uM tc6987) was 66.2. For the same molecule, the “percent quench of YFP fluorescence, 10 uM ach” value was 82.91%, the “percent quench of YFP fluorescence, 30 uM ach” value (acetylcholine 30 uM) was 82.53% and the “percent quench of YFP fluorescence, 50 uM ach” value (acetylcholine 50 uM) was 82.11%. For the same molecule, the “percent quench of YFP fluorescence, 100 uM ach” value was 83.68%, the “percent quench of YFP fluorescence, 1 mM ach” value was 69.89% and the “percent quench of YFP fluorescence, 3 mM ach” value was 78.12%.
